Changes are numbered by the printed parent chain.
T1: Murine CTGF (Mus musculus, UniProt P29268)
T1 construct: purchased Abbexa
T1 sequence (P29268 26-348): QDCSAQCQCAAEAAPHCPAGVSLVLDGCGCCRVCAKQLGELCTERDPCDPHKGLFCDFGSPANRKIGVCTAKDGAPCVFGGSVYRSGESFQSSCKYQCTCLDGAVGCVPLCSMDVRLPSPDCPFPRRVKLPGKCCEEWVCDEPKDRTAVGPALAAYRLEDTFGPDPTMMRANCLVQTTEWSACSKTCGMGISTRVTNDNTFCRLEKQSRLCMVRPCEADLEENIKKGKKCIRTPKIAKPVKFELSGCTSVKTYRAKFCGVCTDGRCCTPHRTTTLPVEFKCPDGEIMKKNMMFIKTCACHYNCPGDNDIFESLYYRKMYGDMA

B1: SEQ ID NO: 8: optimized CTGF-binding hNGAL lipocalin mutein (protein)
chain: QDSTSDLIPAPPLSKVPLQQNFQDNQFQGKWYVVGLAGNYGLRTDKRPSKMFATIYELKEDKSYDVTSVRFEQERCHYTIRTFVPGSQPGEFTSGNIGNYPGSYSTLVRVVSTNYNQHAMVFFKSVIQNREYFAITLYGRTKELTSELKENFIRFSKSLGLPENHIVFPVPIDQCIDG
modifications: lipocalin mutein
B2: SEQ ID NO: 14: optimized CTGF-binding hNGAL lipocalin mutein (protein)
chain: QDSTSDLIPAPPLSKVPLQQNFQDNQFQGKWYVVGLAGNAILREDKYPAKMFATIYELKEDKSYDVTSVRFEAKSCIYTIKTFVPGSQPGEFTRGNIKSAPGQTSTLVRVVSTNYNQHAMVFFKHVSQNREIFVITLYGRTKELTSELKENFIRFSKSLGLPENHIVFPVPIDQCIDG
modifications: lipocalin mutein
B3: SEQ ID NO: 16: optimized CTGF-binding hNGAL lipocalin mutein (protein)
chain: B2 chain with E44T, Y47Q, I77V, R94A, I132F
modifications: lipocalin mutein
B4: SEQ ID NO: 17: optimized CTGF-binding hNGAL lipocalin mutein (protein)
chain: B2 chain with E44T, Y47Q, I77V, I80S, R94A, I132F
modifications: lipocalin mutein
B5: SEQ ID NO: 19: optimized CTGF-binding hNGAL lipocalin mutein (protein)
chain: B2 chain with Y47Q, I77S, R94A, F123H, H125A, I132S
modifications: lipocalin mutein
B6: SEQ ID NO: 20: optimized CTGF-binding hNGAL lipocalin mutein (protein)
chain: B2 chain with Y47Q, I77S, R94A, F123A, H125A, S127Q, Q128L, I132H, V134F
modifications: lipocalin mutein
B7: SEQ ID NO: 21: optimized CTGF-binding hNGAL lipocalin mutein (protein)
chain: B2 chain with Y47Q, I77S, R94A, H125A, S127R, Q128G, N129A, I132S, V134N, T136A
modifications: lipocalin mutein
B8: SEQ ID NO: 26: optimized CTGF-binding hNGAL lipocalin mutein (protein)
chain: QDSTSDLIPAPPLSKVPLQQNFQDNQFQGKWYVVGLAGNYRLREDKDPSKMGATIYELKEDKSYDVTQVQFDDKKCLYVIETFVPGSQPGEFTLGNIKVYPTLESQLVRVVSTNYNQHAMVFFKKVYQNREVFWITLYGRTKELTSELKENFIRFSKSLGLPENHIVFPVPIDQCIDG
modifications: lipocalin mutein
B9: SEQ ID NO: 27: optimized CTGF-binding hNGAL lipocalin mutein (protein)
chain: B8 chain with N96A, V99S, T102G, E104T, F123L, Q128G, N129S, R130E, V132Y, W134H
modifications: lipocalin mutein
B10: SEQ ID NO: 28: optimized CTGF-binding hNGAL lipocalin mutein (protein)
chain: QDSTSDLIPAPPLSKVPLQQNFQDNQFQGKWYVVGLAGNYRLREDKDPSKMGATIYELKEDKSYDVTQVQFDDKKCLYVIETFVPGSQPGEFTLGAIKSYPGLTSQLVRVVSTNYNQHAMVFVKKVWPNLEYFQIVLYGRTKELTSELKENFIRFSKSLGLPENHIVFPVPIDQCIDG
modifications: lipocalin mutein
B11: SEQ ID NO: 11: optimized CTGF-binding hNGAL lipocalin mutein (protein)
chain: B2 chain with Y47Q, I77S, I80S, R94A, I132T
modifications: lipocalin mutein
B12: SEQ ID NO: 12: optimized CTGF-binding hNGAL lipocalin mutein (protein)
chain: B2 chain with A73N, I77V, R94T, I132F
modifications: lipocalin mutein
B13: SEQ ID NO: 13: optimized CTGF-binding hNGAL lipocalin mutein (protein)
chain: B2 chain with A73N, I77V, I80S, R94T, I132F
modifications: lipocalin mutein
B14: SEQ ID NO: 18: optimized CTGF-binding hNGAL lipocalin mutein (protein)
chain: B2 chain with L36I, E44D, A73N, R94H, A100H
modifications: lipocalin mutein

Key:
human CTGF [1] = target: T2, human CTGF (Homo sapiens, UniProt P29279); assay: SPR binding kinetics and affinity, human CTGF; set-up: key to human CTGF kon / human CTGF koff / human CTGF KD: B binding without determination of kinetics constants; conditions: 25° C., 1:1 binding model
T2 construct: purchased Creative Biomart
Procedure: (§1) Surface plasmon resonance (SPR) was used to measure binding kinetics and affinity of the representative lipocalin muteins disclosed herein.
(§2) The binding of exemplary lipocalin muteins to human (Creative Biomart), cynomolgus, rat (R&D Systems) and mouse CTGF (Abbexa) was determined by SPR using a Biacore instrument (Cytiva, formerly GE Healthcare). Some targets were fused to a human IgG1 Fc tag, and captured via the anti-human IgG antibody kit, others were directly immobilized.
(§3) For some measurements, human CTGF with a human IgG1 Fc Tag or rat or murine CTGF without a tag were directly immobilized to a CM5 Chip. The carboxyl groups on the chip were activated using 1-ethyl-3-(3-dimethylaminopropyl)-carbodiimide (EDC) and N-hydroxysuccinimide (NHS). Subsequently, the targets at a concentration of 3-5 μg/mL in 10 mM sodium acetate (pH) 4.5 were applied at a flow rate of 10 μL/min until an immobilization level of 300-1100 resonance units was achieved. Residual non-reacted NHS-esters were blocked by passing a solution of 1 M ethanolamine across the surface. The reference channel was activated/deactivated. For the capture setting, targets with an IgG Fc Tag at 0.25-2.5 μg/mL in HBS-EP+ buffer were captured by the anti-human IgG-Fc antibody at the chip surface for 180 s at a flow rate of 10 μL/min.
(§4) The binding assay was carried out with a contact time of 180 s, a dissociation time of 900-3600 s and a flow rate of 30 μL/min. All measurements were performed at 25° C. […] For the directly immobilized targets, the same regeneration conditions were used. Prior to the protein measurements, three startup cycles were performed for conditioning purposes. Data were evaluated with Biacore Evaluation software. Double referencing was used and the 1:1 binding model was used to fit the raw data.

human CTGF [2] = target: T3, human CTGF (Homo sapiens, UniProt P29279, H83D); assay: SPR binding kinetics and affinity, human CTGF; set-up: key to human CTGF kon / human CTGF koff / human CTGF KD: B binding without determination of kinetics constants; conditions: 25° C., 1:1 binding model
T3 construct: purchased Creative Biomart
Procedure: as §1, §2, §3, §4

Murine CTGF = target: T1, Murine CTGF; assay: SPR binding kinetics and affinity, murine CTGF; set-up: key to Murine CTGF kon / Murine CTGF koff / Murine CTGF KD: B binding without determination of kinetics constants; conditions: 25° C., 1:1 binding model
Procedure: as §1, §2, §3, §4
The values determined for kon, koff and the resulting equilibrium dissociation constant (KD) for exemplary lipocalin muteins are summarized in Table 4.

[3] = Thermal stability assessment by nanoDSC; type: physicochemical; conditions: 1 mg/mL in PBS, scan 25-100° C. at 1° C./min; for TM: major transition
Procedure: To determine the melting temperatures (Tms) of the lipocalin muteins, which is a general indicator for folding stability, the CTGF specific muteins, at a protein concentration of 1 mg/mL in PBS (Gibco), were scanned (25-100° C.) at 1° C./min using a capillary nanoDSC instrument (CSC 6300, TA Instruments). […] Several unfolding events can contribute to the observed thermogram. In cases with multiple transitions, the one with the major unfolding energy best represents the overall protein fold and is reported. Muteins were produced as described in Example 3. SEQ ID NOs: 3, 7, 9, 25, and 29 were expressed using E. coli, the other muteins were expressed using CHO cells.
The resulting maximum melting temperatures as well as the onset temperature of melting for exemplary lipocalin muteins and fusion proteins are listed in Table 3 below.

T3 sequence (P29279 with tags, fused parts or gaps H83D): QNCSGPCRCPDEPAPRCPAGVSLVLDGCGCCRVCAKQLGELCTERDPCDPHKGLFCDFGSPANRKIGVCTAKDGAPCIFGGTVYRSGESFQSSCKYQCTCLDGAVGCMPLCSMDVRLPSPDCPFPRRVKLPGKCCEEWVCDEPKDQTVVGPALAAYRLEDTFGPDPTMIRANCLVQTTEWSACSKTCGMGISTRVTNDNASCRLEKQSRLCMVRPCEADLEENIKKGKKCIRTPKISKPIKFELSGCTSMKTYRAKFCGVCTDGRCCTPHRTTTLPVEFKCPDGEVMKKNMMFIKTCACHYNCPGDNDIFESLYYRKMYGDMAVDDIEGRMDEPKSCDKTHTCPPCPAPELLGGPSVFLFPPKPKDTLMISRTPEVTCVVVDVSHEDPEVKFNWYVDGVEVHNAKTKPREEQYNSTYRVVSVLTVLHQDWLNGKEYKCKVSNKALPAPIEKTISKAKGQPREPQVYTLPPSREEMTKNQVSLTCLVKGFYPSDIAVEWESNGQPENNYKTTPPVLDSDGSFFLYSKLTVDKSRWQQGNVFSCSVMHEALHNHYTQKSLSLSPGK
T2 sequence (P29279 with tags, fused parts or gaps H83D): as above

Row | Molecule | human CTGF koff (human CTGF [1]) [s⁻¹] | human CTGF kon (human CTGF [2]) | Murine CTGF koff (Murine CTGF) | Murine CTGF kon (Murine CTGF) | ONSET MELTING [3] [°C] | TM [3] [°C] | human CTGF KD (human CTGF [2]) | human CTGF koff (human CTGF [2]) | Murine CTGF KD (Murine CTGF)
1 | B1 | 0.000114 | 45400 M⁻¹ s⁻¹ | 0.000131 s⁻¹ | 72000 M⁻¹ s⁻¹ | 49 | 75 |  |  | 
2 | B2 | 5.34e-05 | 102000 M⁻¹ s⁻¹ | 7.03e-05 s⁻¹ | 190000 M⁻¹ s⁻¹ | 57 | 68 |  |  | 
3 | B3 | 7.02e-05 | 92300 M⁻¹ s⁻¹ | 6.34e-05 s⁻¹ | 161000 M⁻¹ s⁻¹ | 59 | 73 |  |  | 
4 | B4 |  | B | B | B | 59 | 74 | B | B | B
5 | B5 | 5.2e-05 | 56600 M⁻¹ s⁻¹ | 2.54e-05 s⁻¹ | 93200 M⁻¹ s⁻¹ | 49 | 65 |  |  | 
6 | B6 |  | B | B | B | 46 | 61 | B | B | B
7 | B7 | 6.63e-05 | 127000 M⁻¹ s⁻¹ | 3.94e-05 s⁻¹ | 228000 M⁻¹ s⁻¹ | 55 | 65 |  |  | 
8 | B8 | 3.06e-05 | 23200 M⁻¹ s⁻¹ | 0.000208 s⁻¹ | 35300 M⁻¹ s⁻¹ | 62 | 71 |  |  | 
9 | B9 | 2.45e-05 | 30500 M⁻¹ s⁻¹ | 0.000172 s⁻¹ | 41400 M⁻¹ s⁻¹ | 52 | 64 |  |  | 
10 | B10 | 2.61e-05 | 50400 M⁻¹ s⁻¹ | 8.23e-05 s⁻¹ | 60700 M⁻¹ s⁻¹ | 55 | 65 |  |  | 
11 | B11 | 0.000108 | 44400 M⁻¹ s⁻¹ | 8.19e-05 s⁻¹ | 80100 M⁻¹ s⁻¹ |  |  |  |  | 
12 | B12 | 0.000133 | 55600 M⁻¹ s⁻¹ | 0.000128 s⁻¹ | 91400 M⁻¹ s⁻¹ |  |  |  |  | 
13 | B13 | 2.51e-06 | 51000 M⁻¹ s⁻¹ | B | B |  |  |  |  | B
14 | B14 | 3.05e-06 | 40900 M⁻¹ s⁻¹ | B | B |  |  |  |  | B

— patent publication US20240228562A1, “NOVEL LIPOCALIN MUTEINS SPECIFIC FOR CONNECTIVE TISSUE GROWTH FACTOR (CTGF)” (PIERIS PHARMACEUTICALS GMBH, priority 2021, published 2024)
